Target: the molecule itself
Assay: SAXS

B1: simian virus 40 (SV40) major capsid protein VP1, as soluble VP1 pentamers (natural protein)
chain: APTKRKGSCPGAAPKKPKEPVQVPKLVIKGGIEVLGVKTGVDSFTEVECFLNPQMGNPDEHQKGLSKSLAAEKQFTDDSPDKEQLPCYSVARIPLPNINEDLTCGNILMWEAVTVKTEVIGVTAMLNLHSGTQKTHENGAGKPIQGSNFHFFAVGGEPLELQGVLANYRTKYPAQTVTPKNATVDSQQMNTDHKAVLDKDNAYPVECWVPDPSKNENTRYFGTYTGGENVPPVLHITNTATTVLLDEQGVGPLCKADSLYVSAVDICGLFTNTSGTQQWKGLPRYFKITLRKRSVKNPYPISFLLSDLINRRTQRVDGQPMIGMSSQVEEVRVYEDTEELPGDPDMIRYIDEFGQTTTRMQ
B1: binds.

— PMC6356861 (ACS Omega, 2019)
